Experimental data as given in the supplement of paper PMC9170038.

Tested on: MS2 coat protein
Experiment: apparent KD of MS2 coat protein; designed switch direction (-1 OFF switch, 1 ON switch): 1; higher = weaker reporter binding
Outline: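 Designed RNA switches were transcribed on Illumina chips by stalled E. coli RNA polymerase and titrated with SNAP-549-labelled MS2 coat protein from 0.7 or 1.5 nM, doubling to 3 µM. Step length ran from 0.8–1.5 h at the lowest concentration to 10–20 min at the highest. The apparent KD is the median over clusters for each design, from curve-fitted normalised cluster fluorescence.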

[1] = input ligand: microRNA oligo, concentration not stated
[2] = Eterna round: R95, input ligand: FMN 200 uM
[3] = Eterna round: R95, input ligand: microRNA oligo, concentration not stated
[4] = Eterna round: R95, input ligand: none

Sequence	apparent KD of MS2 coat protein (input ligand: FMN 200 uM) [nM]	apparent KD of MS2 coat protein [1] [nM]	apparent KD of MS2 coat protein (input ligand: none) [nM]	apparent KD of MS2 coat protein [2] [nM]	apparent KD of MS2 coat protein [3] [nM]	apparent KD of MS2 coat protein [4] [nM]
AUAAAACAUGAGGAUCACCCAUGUAGACGGAGAGCCGUCACAUAGGAUAUAGCCAGCGGUGUUGGCUAGAAGGGUGGUAGAAAA [Lavezaer] (Eterna round: R96, puzzle: Same State NG 3)	59.8	78.1	130	–	–	–
AUAAAACAUGAGGAUCACCCAUGUCAACAAAGUCGAGGAUAUGGGCAUAUAAAAUAAGAACCAGAAGGCGAAUAAU [salish99_ss1_r3_026] (puzzle: Same State 1)	–	–	–	32.2	265	230
AUAACCCGUGCUAAGGAUAUGCGUACUCCUACAUGAGGAUCACCCAUGUCCCGCCGAAAAGGAAGGCAGAAGGUAGCACGGGCCG [Lasoleri] (puzzle: Same State 2)	–	–	–	45.7	84.9	126
AUAAGGCAAGCUUUUUUCUCGUAGUGUAAACAUGAGGAUCACCCAUGUGCCCACCCUGGAUCUUUGGAUCGCGGAAC [Raxesori] (Eterna round: R96, puzzle: Sensor for hsa-mir-208a)	103	21.8	90.5	–	–	–
AUAAGGCAAGCUUUUUUCUCGUAGUGUAAACAUGAGGAUCACCCAUGUGCCCACCCUGGAUCUUUGGAUCGCGGAAC [Raxesori] (puzzle: Sensor for hsa-mir-208a)	–	–	–	83.6	27.1	104
AUAAGUUUGAUGCUCGUCUCUCCGUACAAACAUGAGGAUCACCCAUGUGGUCGGGAAGUAGCCCGGCCGGUAUGGCC [Atusri] (puzzle: Sensor for hsa-mir-208a)	–	–	–	16.7	14.1	15.8
AUAGUUAGCGAAGGAUAUGGGAAAGGAAGUGUACCAGAAGGUCGGCUACUGGGCUUACAUGAGGAUCACCCAUGUCCCGGUAGC [PowerStrip SSNG 1.13] (Eterna round: R96, puzzle: Same State NG 1)	10.1	9.15	12.2	–	–	–
AUAGUUGCCGAAGGAUAUGAUGAGGAUCACCCAUCAGAAGGUUGGCUAUUGGGUGGACAUGAGGAUCACCCAUGUUCUUUGGUA (Eterna round: R96, puzzle: Same State NG 1)	64.2	107	140	–	–	–
AUAGUUGCCGAAGGAUAUGAUGAUGAUCACACAUCAGAAGGUCGGCUAUUGGGUGGACAUGAGGAUCACCCGUGUUCUUUGGUC (Eterna round: R96, puzzle: Same State NG 1)	96.1	79.5	103	–	–	–
AUAUAACAUGAGGAUCACCCAUGUCUCUAAAGUCGAGGAUAUGGGCAGGUUAUAUCCGAACCAGAAGGCGAAUUAU [SS1 Teenbexe 5] (puzzle: Same State 1)	–	–	–	56.3	239	322
AUCAAAUACCUAGGAUAUAGUACACACAGCGGGCUAGAAGGAGGCGACCACGCUGACAUGAGGAUCACCCAUGUCCAACAGGAU [Eternabot solution 19] (Eterna round: R96, puzzle: Same State NG 1)	48.9	37.8	52.8	–	–	–
AUCAAUCUAUCUCAGGAUAUCAUGUCAAAGACAUGAGGAUCACCCAUGUACCAGGAAACUGGUUAUGAGAAGGGAGAUAGAUUGA [Mat - Same State 2 - Mod - D30] (puzzle: Same State 2)	–	–	–	56.2	158	53.2
AUCCGGAAGCGAGGAUAUGCAGAGGAUCACCCUGCAGAAGGCGCAAAAGCGAGGAUAUGCAGAGGAUCACCCUGCAGAAGGCGC [pwkr ssNG DX.28] (Eterna round: R96, puzzle: Same State NG 1)	14	12.6	42.1	–	–	–
AUGGAGACCGGAGGAUAUGGACCAACAAUCGGUCCAGAAGGCUGCCCAUGGUAUACAUGAGGAUCACCCAUGUGGCCGCGGAGA [Eternabot solution 13] (Eterna round: R96, puzzle: Same State NG 1)	65.8	69.2	102	–	–	–
AUUAUACAUGAGGAUCACCCAUGUCAAUGUAGUCGAGGAUAUGGGUUGCUAUGAGGCGUACUAGAAGGCGAGGAGA [Mat - Same State 1 - Mod of JL - D17] (puzzle: Same State 1)	–	–	–	61.5	99.9	82.8
AUUAUUUAUGCAGGAUAUGAUUAACAUGAGGAUCACCCAUGUGGUGUUGUGAGUAAGGAGAGUGAUCAGAAGGGCAUUUCUUUU [JMF's solution 49] (Eterna round: R96, puzzle: Same State NG 2)	596	315	492	–	–	–

Sequence	apparent KD of MS2 coat protein (input ligand: FMN 200 uM) [nM]	apparent KD of MS2 coat protein [1] [nM]	apparent KD of MS2 coat protein (input ligand: none) [nM]	apparent KD of MS2 coat protein [2] [nM]	apparent KD of MS2 coat protein [3] [nM]	apparent KD of MS2 coat protein [4] [nM]
AUUAUUUAUGCAGGAUAUGAUUAACAUGAGGAUCACCCAUGUGGUGUUGUGAGUAAGGAGAGUGAUCAGAAGGGCAUUUUUUCU [JMF's solution 55] (Eterna round: R96, puzzle: Same State NG 2)	460	361	490	–	–	–
AUUCGUUUGAUAGGAUAUCGCUAUACAUGAGGAUCACCCAUGUUUACCACGCUGGUUUUUCGUACCGAGAAGGAUUCUGAUGAU [JL JR sub007 mod 3] (Eterna round: R96, puzzle: Same State NG 2)	35.4	27.3	41.4	–	–	–
AUUGCUUACGCAGGAUAUGAUGUGGAAACUGCGUCAGAAGGGUGAACAGAAUCGUUGCAAGAAGACAUGAGGAUCACCCAUGUC [SameState NG1 #97] (Eterna round: R96, puzzle: Same State NG 1)	42	34.9	39	–	–	–
AUUUAACAAGCUUUUUGCUCGUCUUAUAAACAUGAGGAUCACCCAUGUAAUAGCGUGAGAGUAAUUAUAUUAAUUAU [JMF 101] (puzzle: Sensor for hsa-mir-208a)	–	–	–	14.7	36	14.7
AUUUAACAAGCUUUUUGCUCGUCUUAUAAACAUGAGGAUCACCCAUGUAAUAGCGUGAGAGUUAUUAUAUAAAUAAU [JMF 87] (puzzle: Sensor for hsa-mir-208a)	–	–	–	18	33.1	16.7
AUUUUUAAUGCAGGAUAUGAUUAACAUGAGGAUCACCCAUGUGGUGUUGUGAGUAAGGAGAGUGAUCAGAAGGGCAUUUUUUUG [JMF's solution 90] (Eterna round: R96, puzzle: Same State NG 2)	753	287	458	–	–	–
CAAACCGACACAGGAUAUGGAGCCGACCGGCACAUGAGGAUCACCCAUGUGCUACAGGUAUGUAGCUAGAAGGGUGAAGGUAUC [Eternabot solution 29] (Eterna round: R96, puzzle: Same State NG 2)	48.5	56.9	118	–	–	–
CAAACUUAGUAGGGUAGGUACCCAGGAUGACAUGAGGAUCACCCAUGUAAGAGCUUUUUGCUCGUCAUUAACAGUUG [JR_SHM208a_Sub018] (puzzle: Sensor for hsa-mir-208a)	–	–	–	57.5	102	74.5
CAAGAAAACGCAGGAUAUACCCGGACAACCCGGGUAGAAGGGUGACACAUGAGGAUCACCCAUGUACAUGGCAAUAACCAUGGA [Sobiais] (Eterna round: R96, puzzle: Same State NG 1)	15.2	10.7	35.4	–	–	–
CAAGUACAUGAGGAUCACCCAUGUAGAAGAGAUGCAGGAUAUGUGGGAAAAGGGAGUGUAACAGAAGGGCAAGGAG [JR_SS!_Sub018] (puzzle: Same State 1)	–	–	–	50	55.4	59.9
CAGCGCUGUCGAGAGGAUAUGCGGUGAUGGACAUGAGGAUCACCCAUGUUAGCGAUAGCAUUACGGUAGAAGGCUCUGCAGCUGC [Soteed - 1] (puzzle: Same State 2)	–	–	–	–	78.9	–
CAGCUCGUGUGAGGAUAUGCCGCCGUUUCGGCUGCAGAAGGUGCUACGUUACAUGAGGAUCACCCAUGUCUCUGUUGUUUCGUG [salish99_SSNG1_r04_963] (Eterna round: R96, puzzle: Same State NG 1)	20.8	17.9	23.2	–	–	–
CCGCGGGUAUCACAGGAUAUACUCAUAAUUACAUGAGGAUCACCCAUGUGACGGAAUUCCGGUGCGUAGAAGGGUGAUGGACCGC [Onquorbe] (puzzle: Same State 2)	–	–	–	19.3	52.1	65.7
CCGGUAUAUGGAGGAUAUGGAGCCUUAUUGGCUCCAGAAGGCUAAUAACAUGAGGAUCACCCAUGUCCGGCGGUCAAUAGACCG [Eli NG1ss - 59] (Eterna round: R96, puzzle: Same State NG 1)	66.7	113	336	–	–	–
CCGUAGAUGGUAGGAUAUGGAGCCUUAUUGGCUCCAGAAGGAUCUAAAACAUGAGGAUCACCCAUGUCGGCGGUCAAUAGACCG [Eli NG1ss - 83] (Eterna round: R96, puzzle: Same State NG 1)	67.2	65.1	107	–	–	–
